The chains are these.
B1: ORF3a protein (SARS-CoV-2), P0DTC3 (parent)
chain: MDLFMRIFTIGTVTLKQGEIKDATPSDFVRATATIPIQASLPFGWLIVGVALLAVFQSASKIITLKKRWQLALSKGVHFVCNLLLLFVTVYSHLLLVAAGLEAPFLYLYALVYFLQSINFVRIIMRLWLCWKCRSKNPLLYDANYFLCWHTNCYDYCIPYNSVTSSIVITSGDGTTSPISEHDYQIGGYTEKWESGVKDCVVLHSYFTSDYYQLYSTQLSTDTGVEHVTFFIYNKIVDEPEEHVQIHTIDGSSGVVNPVMEPIYDEPTTTTSVPL
partner: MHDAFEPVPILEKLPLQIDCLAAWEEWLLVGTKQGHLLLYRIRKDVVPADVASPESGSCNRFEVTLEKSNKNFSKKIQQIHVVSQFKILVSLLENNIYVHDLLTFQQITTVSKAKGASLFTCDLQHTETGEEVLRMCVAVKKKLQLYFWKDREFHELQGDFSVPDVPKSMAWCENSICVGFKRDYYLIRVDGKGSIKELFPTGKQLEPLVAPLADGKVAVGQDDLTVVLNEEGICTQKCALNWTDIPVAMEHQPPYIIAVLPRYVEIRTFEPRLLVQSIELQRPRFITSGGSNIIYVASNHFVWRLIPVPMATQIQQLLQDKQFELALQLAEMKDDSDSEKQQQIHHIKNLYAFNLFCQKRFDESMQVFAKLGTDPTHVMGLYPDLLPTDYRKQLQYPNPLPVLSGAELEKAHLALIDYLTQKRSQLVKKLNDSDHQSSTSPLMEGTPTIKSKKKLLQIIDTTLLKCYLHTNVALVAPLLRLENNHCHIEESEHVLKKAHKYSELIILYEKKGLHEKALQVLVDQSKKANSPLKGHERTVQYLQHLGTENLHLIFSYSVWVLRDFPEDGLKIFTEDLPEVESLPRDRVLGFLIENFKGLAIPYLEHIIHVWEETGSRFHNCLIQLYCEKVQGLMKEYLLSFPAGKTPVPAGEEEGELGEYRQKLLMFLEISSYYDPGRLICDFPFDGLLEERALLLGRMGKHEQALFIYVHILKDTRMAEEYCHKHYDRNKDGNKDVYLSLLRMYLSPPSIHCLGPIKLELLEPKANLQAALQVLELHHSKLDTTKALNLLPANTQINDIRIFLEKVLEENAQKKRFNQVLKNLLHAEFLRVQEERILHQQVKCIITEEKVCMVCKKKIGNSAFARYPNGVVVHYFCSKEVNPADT
B2: ORF3a protein (SARS-CoV-2), P0DTC3 (parent)
chain: B1 chain

The results in this text go back to IntAct's records for PubMed 34706264.

Variants of B1 are the subject of the first experiment. To be noted: with vps39_human VPS39, Q96JC1.
Take W193R: the “effect of a mutation on the interaction” value is listed as “decreasing interaction strength”.
Regarding S171E, the “effect of a mutation on the interaction” value is listed as “disrupting interaction strength”.

Variants of B1 are the subject of another experiment. To be noted: with vps39_human VPS39, Q96JC1. The source holds these as a separate data set.
With Q116L, the “effect of a mutation on the interaction” value is given as “with no effect”.
Regarding MDLFMRIFTIGTVTLKQGEIKDATPSDFVRATATIPIQASLPFGWLIVGVALLAVFESASKIITLKKRWQLALSKGVHFVCNLLLLFVTVYSHLLLVAAGLEAPFLYLYALVYFLQSINFVRIIMRLWLCWKCRSKNPLLYDANYFLCWHTNCYDYCIPYNSVTSSIVITSGDGTTSPISEHDYQIGGYTEKWESGVKDCVVLHSYFTSDYYQLYSTQLSTDTGVEHVTFFIYNKIVDEPEEHVQIHTIDGSSGVVNPVMEPIYDEPTTTTSVPL [Q57E], the “effect of a mutation on the interaction” value is on record as “with no effect”.
In the case of S58L, the “effect of a mutation on the interaction” value was “with no effect”.

Variants of B2 are the subject of the next experiment. To be noted: with stx4_human STX4, Q12846.
Chain of stx4_human STX4, Q12846 (Q12846 whole entry): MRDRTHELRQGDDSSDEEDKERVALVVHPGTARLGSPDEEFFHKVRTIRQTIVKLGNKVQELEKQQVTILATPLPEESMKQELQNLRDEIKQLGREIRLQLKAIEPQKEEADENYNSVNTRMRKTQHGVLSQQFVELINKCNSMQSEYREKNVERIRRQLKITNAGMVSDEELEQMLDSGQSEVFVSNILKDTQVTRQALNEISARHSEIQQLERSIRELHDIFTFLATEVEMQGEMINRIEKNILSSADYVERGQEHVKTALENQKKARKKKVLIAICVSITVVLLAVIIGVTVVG
S171E: the “effect of a mutation on the interaction” value is on record as “disrupting interaction strength”.

The variants in a further experiment derive from B2. To be noted: with vamp7_human VAMP7, P51809.
Chain of vamp7_human VAMP7, P51809 (P51809 whole entry): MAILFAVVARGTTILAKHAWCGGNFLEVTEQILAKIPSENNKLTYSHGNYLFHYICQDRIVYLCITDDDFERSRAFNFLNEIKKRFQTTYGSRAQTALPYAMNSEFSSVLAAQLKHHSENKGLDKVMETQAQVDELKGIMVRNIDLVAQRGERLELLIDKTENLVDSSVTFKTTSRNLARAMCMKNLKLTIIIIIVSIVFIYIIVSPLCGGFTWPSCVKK
On to S171E, for which the “effect of a mutation on the interaction” value was “disrupting interaction strength”.
